For one experiment, the target named is human ROR1 (human) (UniProt Q01973). The experiment is described as follows: cell-based or functional assay.
The next experiment addresses human SLAMF7 (human) (UniProt Q9NQ25). Nature of the experiment: cell-based or functional assay.

B1: ROR1 CAR with 4-1BB costimulatory domain (protein)
chain: QVQLVESGGALVQPGGSLTLSCKASGFDFSAYYMSWVRQAPGKGLEWIATIYPSSGKTYYAASVQGRFTISADNAKNTVYLQMNSLTAADTATYFCARDSYADDGALFNIWGQGTLVTVSSGGGGSGGGGSGGGGSQLVLTQSPSVSAALGSSAKITCTLSSAHKTDTIDWYQQLAGQAPRYLMYVQSDGSYEKRSGVPDRFSGSSSGADRYLIISSVQADDEADYYCGADYIGGYVFGGGTQLTVGESKYGPPCPPCPMFWVLVVVGGVLACYSLLVTVAFIIFWVKRGRKKLLYIFKQPFMRPVQTTQEEDGCSCRFPEEEEGGCELRVKFSRSADAPAYQQGQNQLYNELNLGRREEYDVLDKRRGRDPEMGGKPRRKNPQEGLYNELQKDKMAEAYSEIGMKGERRRGKGHDGLYQGLSTATKDTYDALHMQALPPR
With B1, in the experiment with human ROR1 (human), the IFN-γ in supernatant (ELISA), CD8+ CAR-T cells co-cultured with RCH-ACV, untreated turned out to be 1310 pg/mL; the proliferation index (CFSE, 72 h), CD8+ CAR-T cells co-cultured with RCH-ACV, untreated (proliferation index) was 2.84; the specific lysis of K562/ROR1 target cells by CD8+ CAR-T cells, no dasatinib, t=10 h was 94%; the specific lysis of K562/ROR1 target cells by CD8+ CAR-T cells, no dasatinib, up to t=5 h worked out at 73%. In addition, the specific lysis of ROR1+ RCH-ACV target cells by CD8+ CAR-T cells, untreated, t=8 h in the experiment with human ROR1 (human) was > 90%.

B2: SLAMF7 CAR with CD28 costimulatory domain (protein)
chain: EVQLVESGGGLVQPGGSLRLSCAASGFDFSRYWMSWVRQAPGKGLEWIGEINPDSSTINYAPSLKDKFIISRDNAKNSLYLQMNSLRAEDTAVYYCARPDGNYWYFDVWGQGTLVTVSSGGGGSGGGGSGGGGSDIQMTQSPSSLSASVGDRVTITCKASQDVGIAVAWYQQKPGKVPKLLIYWASTRHTGVPDRFSGSGSGTDFTLTISSLQPEDVATYYCQQYSSYPYTFGQGTKVEIKESKYGPPCPPCPAPPVAGPSVFLFPPKPKDTLMISRTPEVTCVVVDVSQEDPEVQFNWYVDGVEVHNAKTKPREEQFQSTYRVVSVLTVLHQDWLNGKEYKCKVSNKGLPSSIEKTISKAKGQPREPQVYTLPPSQEEMTKNQVSLTCLVKGFYPSDIAVEWESNGQPENNYKTTPPVLDSDGSFFLYSRLTVDKSRWQEGNVFSCSVMHEALHNHYTQKSLSLSLGKMFWVLVVVGGVLACYSLLVTVAFIIFWVRSKRSRGGHSDYMNMTPRRPGPTRKHYQPYAPPRDFAAYRSRVKFSRSADAPAYQQGQNQLYNELNLGRREEYDVLDKRRGRDPEMGGKPRRKNPQEGLYNELQKDKMAEAYSEIGMKGERRRGKGHDGLYQGLSTATKDTYDALHMQALPPR
As to B2, in the experiment with human SLAMF7 (human), the specific lysis of K562/SLAMF7 target cells by CD8+ CAR-T cells, no dasatinib, t=6 h was 67% and the specific lysis of K562/SLAMF7 target cells by CD8+ CAR-T cells, no dasatinib, t=12 h is 85%.

B3: SLAMF7 CAR with 4-1BB costimulatory domain (protein)
chain: EVQLVESGGGLVQPGGSLRLSCAASGFDFSRYWMSWVRQAPGKGLEWIGEINPDSSTINYAPSLKDKFIISRDNAKNSLYLQMNSLRAEDTAVYYCARPDGNYWYFDVWGQGTLVTVSSGGGGSGGGGSGGGGSDIQMTQSPSSLSASVGDRVTITCKASQDVGIAVAWYQQKPGKVPKLLIYWASTRHTGVPDRFSGSGSGTDFTLTISSLQPEDVATYYCQQYSSYPYTFGQGTKVEIKESKYGPPCPPCPAPPVAGPSVFLFPPKPKDTLMISRTPEVTCVVVDVSQEDPEVQFNWYVDGVEVHNAKTKPREEQFQSTYRVVSVLTVLHQDWLNGKEYKCKVSNKGLPSSIEKTISKAKGQPREPQVYTLPPSQEEMTKNQVSLTCLVKGFYPSDIAVEWESNGQPENNYKTTPPVLDSDGSFFLYSRLTVDKSRWQEGNVFSCSVMHEALHNHYTQKSLSLSLGKMFWVLVVVGGVLACYSLLVTVAFIIFWVKRGRKKLLYIFKQPFMRPVQTTQEEDGCSCRFPEEEEGGCELRVKFSRSADAPAYQQGQNQLYNELNLGRREEYDVLDKRRGRDPEMGGKPRRKNPQEGLYNELQKDKMAEAYSEIGMKGERRRGKGHDGLYQGLSTATKDTYDALHMQALPPR
In the experiment with human SLAMF7 (human), B3 had a specific lysis of K562/SLAMF7 target cells by CD8+ CAR-T cells, no dasatinib, t=6 h of 63% and a specific lysis of K562/SLAMF7 target cells by CD8+ CAR-T cells, no dasatinib, t=12 h of 83%.

For the origin of these results see patent US20210169880A1.
